Test results published in the supplement of paper PMC9112550, “Optimization of the antimicrobial peptide Bac7 by deep mutational scanning” (BMC Biology, 2022).

These sequences were tested on Escherichia coli TOP10 (assay: shrunken log2 fold change of peptide-encoding DNA abundance (4.5 h post-induction vs induction); higher = less antimicrobial activity (less host growth inhibition)). Conditions: time post-induction: 4.5 h; library: site-saturation at positions 5, 18, 19, 20.
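Also: peptides expressed intracellularly from a pBAD plasmid library in pooled LB shake-flask culture, induced with 0.3% L-arabinose, DNA abundance read by NGS, three biological replicates, DESeq2 with apeglm shrinkage.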

Point of comparison: RRIRRRPPRLPRPRPRPVMFPRP, “shrunken log2 fold change” value 0.155. Against it:
- RRIRQRPPRLPRPRPRPLAGPRP — within 0.2 log units, 0.166
- RRIRHRPPRLPRPRPRPSWNPRP — lower, -0.264
- RRIRLRPPRLPRPRPRPHWEPRP — within 0.2 log units, 0.0215
- RRIRDRPPRLPRPRPRPIFNPRP — lower, -0.239
- RRIRNRPPRLPRPRPRPLHEPRP — within 0.2 log units, 0.0748
- RRIRLRPPRLPRPRPRPNVYPRP — lower, -0.186
- RRIRYRPPRLPRPRPRPSACPRP — lower, -0.301
- RRIRCRPPRLPRPRPRPCCEPRP — within 0.2 log units, 0.0666
- RRIRIRPPRLPRPRPRPRCVPRP — within 0.2 log units, -0.0162
- RRIRIRPPRLPRPRPRPEAEPRP — higher, 0.677
- RRIRWRPPRLPRPRPRPSSSPRP — within 0.2 log units, 0.00035
- RRIRKRPPRLPRPRPRPKYVPRP — within 0.2 log units, 0.0381
- RRIRLRPPRLPRPRPRPMFGPRP — within 0.2 log units, 0.109
- RRIRRRPPRLPRPRPRPLGCPRP — within 0.2 log units, 0.166
- RRIRERPPRLPRPRPRPIMKPRP — lower, -0.376
- RRIRQRPPRLPRPRPRPYQRPRP — lower, -0.52
- RRIRNRPPRLPRPRPRPNVTPRP — lower, -0.361
- RRIRNRPPRLPRPRPRPGHHPRP — within 0.2 log units, -0.00875
- RRIRLRPPRLPRPRPRPMMAPRP — lower, -0.137
- RRIRARPPRLPRPRPRPARPPRP — higher, 0.827
- RRIRYRPPRLPRPRPRPIKHPRP — lower, -0.693
- RRIRWRPPRLPRPRPRPCSYPRP — lower, -0.0533
- RRIRTRPPRLPRPRPRPRPNPRP — within 0.2 log units, 0.267
- RRIRSRPPRLPRPRPRPAFMPRP — within 0.2 log units, 0.309
- RRIRDRPPRLPRPRPRPIRSPRP — within 0.2 log units, -0.00822
- RRIRKRPPRLPRPRPRPYQDPRP — within 0.2 log units, 0.0178
- RRIRWRPPRLPRPRPRPQDPPRP — within 0.2 log units, 0.0126
- RRIRMRPPRLPRPRPRPSIQPRP — within 0.2 log units, 0.0104
- RRIRSRPPRLPRPRPRPGPDPRP — within 0.2 log units, 0.332
- RRIRFRPPRLPRPRPRPEAGPRP — higher, 0.806
- RRIRDRPPRLPRPRPRPLSKPRP — within 0.2 log units, 0.132
- RRIRPRPPRLPRPRPRPYSAPRP — lower, -1.14
- RRIRHRPPRLPRPRPRPAFRPRP — within 0.2 log units, 0.0888
- RRIRTRPPRLPRPRPRPNVKPRP — lower, -0.137
- RRIRKRPPRLPRPRPRPLGHPRP — within 0.2 log units, 0.166
- RRIRMRPPRLPRPRPRPTPYPRP — within 0.2 log units, 0.2
- RRIRIRPPRLPRPRPRPLDDPRP — within 0.2 log units, 0.0241
- RRIRLRPPRLPRPRPRPEKMPRP — lower, -0.35
- RRIRRRPPRLPRPRPRPNMLPRP — lower, -0.061
- RRIRYRPPRLPRPRPRPECWPRP — within 0.2 log units, 0.192
- RRIRPRPPRLPRPRPRPVKNPRP — within 0.2 log units, 0.00624
- RRIRCRPPRLPRPRPRPHEAPRP — lower, -0.65
- RRIRRRPPRLPRPRPRPNMKPRP — within 0.2 log units, 0.069
- RRIRNRPPRLPRPRPRPDSKPRP — lower, -0.335
- RRIRCRPPRLPRPRPRPMKMPRP — lower, -0.0497
- RRIRGRPPRLPRPRPRPGYEPRP — higher, 0.365
- RRIRRRPPRLPRPRPRPMVIPRP — lower, -0.189
- RRIRDRPPRLPRPRPRPRIKPRP — lower, -0.454
- RRIRVRPPRLPRPRPRPHKSPRP — within 0.2 log units, 0.0325
- RRIRIRPPRLPRPRPRPNKPPRP — lower, -0.119
- RRIRGRPPRLPRPRPRPCWHPRP — higher, 0.357
- RRIRCRPPRLPRPRPRPWGNPRP — lower, -0.256
- RRIRMRPPRLPRPRPRPFVQPRP — lower, -0.216
- RRIRTRPPRLPRPRPRPWHLPRP — within 0.2 log units, -0.0134
- RRIRPRPPRLPRPRPRPAWNPRP — higher, 0.396
- RRIRERPPRLPRPRPRPSEKPRP — lower, -0.0759
- RRIRDRPPRLPRPRPRPRTLPRP — within 0.2 log units, 0.14
- RRIRARPPRLPRPRPRPGKYPRP — lower, -0.152
- RRIRRRPPRLPRPRPRPCLHPRP — within 0.2 log units, 0.0897
- RRIRHRPPRLPRPRPRPEFAPRP — within 0.2 log units, 0.0409
- RRIRQRPPRLPRPRPRPWIHPRP — lower, -0.103
- RRIRKRPPRLPRPRPRPPHHPRP — within 0.2 log units, 0.322
- RRIRFRPPRLPRPRPRPFWLPRP — within 0.2 log units, 0.0058
- RRIRFRPPRLPRPRPRPESRPRP — within 0.2 log units, 0.146
- RRIRFRPPRLPRPRPRPWDGPRP — within 0.2 log units, 0.00772
- RRIRCRPPRLPRPRPRPCTLPRP — lower, -0.107
- RRIRLRPPRLPRPRPRPLQKPRP — within 0.2 log units, 0.141
- RRIRSRPPRLPRPRPRPKKAPRP — within 0.2 log units, 0.0943
- RRIRRRPPRLPRPRPRPDQHPRP — higher, 0.552
- RRIRKRPPRLPRPRPRPSYCPRP — lower, -0.251
- RRIRKRPPRLPRPRPRPYWKPRP — within 0.2 log units, 0.0282
- RRIRMRPPRLPRPRPRPEAQPRP — higher, 3.76
- RRIRWRPPRLPRPRPRPWHVPRP — lower, -0.201
- RRIRLRPPRLPRPRPRPKWHPRP — lower, -0.207
- RRIRWRPPRLPRPRPRPNEVPRP — within 0.2 log units, 0.0902
- RRIRVRPPRLPRPRPRPNNRPRP — lower, -0.276
- RRIRGRPPRLPRPRPRPADPPRP — higher, 0.585
- RRIRLRPPRLPRPRPRPFNQPRP — lower, -0.122
- RRIRGRPPRLPRPRPRPPYNPRP — lower, -0.163
- RRIRKRPPRLPRPRPRPVDGPRP — within 0.2 log units, 0.344
- RRIRCRPPRLPRPRPRPRVIPRP — within 0.2 log units, 0.0854
- RRIRFRPPRLPRPRPRPIAFPRP — within 0.2 log units, 0.0375
- RRIRNRPPRLPRPRPRPITNPRP — lower, -0.279
- RRIRYRPPRLPRPRPRPWWDPRP — lower, -0.266
- RRIRQRPPRLPRPRPRPENDPRP — within 0.2 log units, -0.0134
- RRIRSRPPRLPRPRPRPFGTPRP — within 0.2 log units, 0.0399
- RRIRERPPRLPRPRPRPMFVPRP — lower, -0.285
- RRIRRRPPRLPRPRPRPPIEPRP — within 0.2 log units, 0.339
- RRIRTRPPRLPRPRPRPFHCPRP — lower, -0.179
- RRIRLRPPRLPRPRPRPSRIPRP — lower, -0.15
